Results published in publication PMC5750218, “Protein-inspired antibiotics active against vancomycin- and daptomycin-resistant bacteria” (Nature Communications, 2018).
Converted amounts (≈) assume the structure as drawn. Read-outs that look alike come from different tables or passages of the source.

Key:
[1] = 37 °C, 20 µM
Method: (§1) Briefly, test compounds (20 μM) were prepared from a 0.2 mM H2O stock solution (40 μL in 400 μL assay volume) except eucatropine, which was 300 μg mL^−1 in 100% DMSO (10 μL in 400 μL assay volume equivalent to 23 μM). The precipitating solution was prepared by adding 5 μL of 10 mM carbutamide in DMSO to 100 mL acetonitrile (final concentration: 135.5 ng mL^−1 or 0.5 μM carbutamide). The human plasma sample (pooled normal human plasma sodium heparin anticoagulant, 2 µL, Cat No.: [sequence], BioReclamation) and phosphate-buffer saline (PBS, pH 7.4 isotonic) were pre-heated at 37 °C for 30 min. 40 μL of test compounds (0.2 mM) were added to protein-low binding Eppendorf tubes, 160 μL of buffer was added, and the mixture was vortexed. For eucatropine, 10 μL of eucatropine (300 μg mL^−1) was added to a protein-low binding Eppendorf tube, 190 μL of buffer was added, and the mixture was vortexed. In each case, 200 μL of plasma was added and the resultant mixture vortexed. For the initial time point (reaction time t = 0 h), 50 μL of sample was immediately transferred into a protein-low binding Eppendorf tube and quenched with 150 μL of the ice-cold precipitating solution, followed by vortexing and subsequent storage at 4 °C. For the remaining time points, the plasma solution was incubated and shaken (150 rpm) at 37 °C. 50 μL aliquots were collected at time points of 0, 1, 3, 6 and 24 h and quenched with 150 μL the ice-cold precipitating solution. All samples were placed in a 4 °C fridge for 30 min then centrifuged at 14,000 × g for 8 min at 4 °C. The supernatant (100 μL) was transferred to a glass vial insert and stored at 4 °C until LC-MS/MS analysis. The percentage of test compounds remaining at the individual time points relative to sample at time point 0 h were reported.

in vitro = settings: human, 50% human plasma (pooled, sodium heparin) in PBS, pH 7.4
Method: as §1

S. aureus ATCC 43300 = assay: Membrane permeability assay (propidium iodide); type: cell-based, Staphylococcus aureus
Method: To evaluate the ability of the compounds to disrupt the cytoplasmic membrane integrity, the membrane impermeable fluorescent DNA intercalating dye propidium iodide (PI) was used. Early exponential phase cells were pelleted and washed twice in 10 mM HEPES buffer (pH 7.4) containing 50 µg mL^−1 of CaCl2 and 5 mM glucose, and then re-suspended in the same buffer (4 × 10^8 CFU mL^−1). Cell suspension was added to a 384-well black walled polystyrene plate (Corning, CLS3573) containing compounds, giving a final concentration of 16 µg mL^−1. After 1 h incubation at 37 °C, 5 µg mL^−1 of PI was added and fluorescence was monitored for 90 min using a Tecan Infinite® m1000 Pro Multi-mode reader (excitation/emission 535/620 nm). Data were corrected by subtraction of fluorescence signal arising from untreated cells in the presence of PI. […] Each sample was tested in quadruplicate and independent assays were performed twice showing similar results. Data was analysed and presented using Prism software.

[2] = tested on: S. pneumoniae ATCC 700677 MDR; assay: microbe, parasite or virus in culture; type: cell-based, Streptococcus pneumoniae
Procedure, shortened: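 Twofold broth microdilution in Mueller Hinton broth used compounds from 8 to 0.003 µg mL^−1. Mid-log cultures were added at 5 × 10^5 CFU mL^−1 and incubated for 24 h at 37 °C. MIC was the lowest concentration with no visible growth.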

[3] = In vivo pharmacokinetics in mice; settings: mouse; for level at […]: 0.250 h; for level at 0.5 h: 0.500 h; for MRT inf: read-out: MRT0-inf; for MRT last: read-out: MRT0-last
Method: Performed by WuXi AppTec (Shanghai) Co., Ltd. Seven to 9-week-old male CD1 mice (SLAC Laboratory Animal Co. Ltd., Shanghai, China) weighing 25–35 g were acclimated for approximate 3 days before being used in the study. Animals are group housed during acclimation and in-life study in compliance with the National Research Council 'Guide for the Care and Use of Laboratory Animals.' The animal room environment is controlled (target conditions: temperature 18 to 26 °C, relative humidity 30–70%, 12 h artificial light and 12 h dark) with temperature and relative humidity monitored daily. Animals were deprived of food for approximately 16 h before formulation administration then allowed access to Certified Rodent Diet (Catalogue # M-01F, Shanghai SLAC Laboratory Animal Co. Ltd.) ad libitum 4 h post dosing. Water was autoclaved before being provided to the animals ad libitum. Formulations of compounds were prepared on the morning of the dosing day. The formulation for the IV group was filtered with filter of 0.22 μm before being dosed to animals. After dose formulation preparation, duplicate 50 μL aliquots were removed from each dose formulation for use in dose validation. For each compound studied, three mice were dosed intravenously (IV) administered to each animal via tail vein per facility SOPs using test article formulated in deionised water at 1 mg mL^−1 with a dose volume of 2 mg mL^−1, providing a dose of 2 mg mL^−1 (based on free base concentration). An additional three mice were dosed subcutaneously (SC) administered to each animal via subcutaneous bolus on each animals’ back per facility SOPs using test article formulated in deionised water at 2 mg mL^−1 with a dose volume of 5 mg mL^−1, providing a dose of 10 mg mL^−1. All animals were killed at the last study time point (100% CO2 was introduced into the animal box).
Plasma samples were collected as the following target times after each dose administration: IV Sampling Time points (hours post dosing): 0, 0.083, 0.25, 0.5, 1, 2, 4, 8 and 24. SC Sampling Time points (hours post dosing): 0, 0.25, 0.5, 1, 2, 4, 8 and 24. Approximately 30 μL blood was obtained via submandibular or saphenous vein for the first several time points. For the last time point, samples were collected via cardiac puncture while the mouse was under anaesthesia. All blood samples were transferred into pre-chilled plastic microcentrifuge tubes containing 2 μL of ethylenediaminetetraacetic acid dipotassium salt (K2-EDTA) (0.5 M) as anticoagulant and placed on wet ice until centrifugation. Harvested blood samples were centrifuged within 30 min of collection at 7000 rpm (8546 × g) 4 °C for about 10 min. After centrifugation, plasma was transferred into another pre-labelled and pre-chilled polypropylene microcentrifuge tubes, then quick-frozen over dry ice and stored at −70 ± 10 °C until LC/MSMS analysis.
LC-MS/MS methods for the quantitative determination of the test article in mouse plasma were developed with an internal standard. Benchtop stability of the compound in mouse plasma was determined at mid QC concentrations in triplicate at 0, 2 h at room temperature. The stability was determined using mean peak area ratio of T2/T0 sample. If the mean peak area ratio is within 80%~120%, the test article in the plasma is considered stable for 2 h at room temperature. […] A set of QC samples consists of three concentration levels (low, middle and high). The sample analysis was performed concurrently with a set of calibration standards and two sets of QC samples using the LC-MS/MS method.
Plasma concentration vs. time data from individual animals was analysed by WinNonLin non-compartmental model (Phoenix WinNonlin 6.2.1, Pharsight, Mountain View, CA). Pharmacokinetic parameter C 0, T ½, CL, Vdss, C max, T max, AUC0-last, AUC0-inf, %F, MRT0-last, MRT0-inf and graphs of plasma concentration vs. time profile were derived.

[4] = male, CD1, plasma, 2 mg/kg IV, read-out: Plasma concentration, Mean IV
[5] = male, CD1, plasma, 10 mg/kg SC, read-out: Plasma concentration, Mean SC

CNC(=O)[C@H](CCCCNC(=O)[C@H]1NC(=O)[C@H]2NC(=O)[C@H](NC(=O)[C@@H]3NC(=O)[C@H](CC(N)=O)NC(=O)[C@H](NC(=O)[C@@H](CC(C)C)NC)[C@H](O)c4ccc(c(Cl)c4)Oc4cc3cc(c4O[C@@H]3O[C@H](CO)[C@@H](O)[C@H](O)[C@H]3O[C@H]3C[C@](C)(N)[C@H](O)[C@H](C)O3)Oc3ccc(cc3Cl)[C@H]2O)c2ccc(O)c(c2)-c2c(O)cc(O)cc21)NC(=O)[C@H](CCCCN)NC(=O)[C@H](CCCCN)NC(=O)[C@H](CCCCNC(=O)c1ccc(Oc2ccccc2)cc1)NC(=O)c1ccc(Oc2ccccc2)cc1 [Compound 24, POB2K-KK-K(Vancomycin)-NHMe]
% compound remaining after incubation in 50% human plasma, 0h [1]: 100%
remaining at 1 h, 20 µM (in vitro): 100%
remaining at 3 h, 20 µM (in vitro): 100%
remaining at 6 h, 20 µM (in vitro): 106%
remaining at 24 h, 20 µM (in vitro): 89%
Membrane permeabilisation (propidium iodide fluorescence) (S. aureus ATCC 43300): comparable fluorescence intensity to oritavancin
MIC S. pneumoniae ATCC 700677 MDR ([2]; 5% Survanta): 0.25 µg/mL (≈ 0.106 µM)
MIC S. pneumoniae ATCC 700677 MDR ([2]; no added Survanta): ≤ 0.003 µg/mL
level at 5 min ([3]; male, CD1, plasma, 2 mg/kg IV, 5 min, n=3, read-out: Plasma concentration, Mean IV): 13800 ng/mL
level at […] [3, 4]: 10000 ng/mL
level at 0.5 h [3, 4]: 5230 ng/mL
level at 1 h [3, 4]: 3010 ng/mL
level at 2 h [3, 4]: 1210 ng/mL
level at 4 h [3, 4]: 285 ng/mL
level at 8 h [3, 4]: 81.9 ng/mL
level at […] ([3]; male, CD1, plasma, 10 mg/kg SC, n=3, read-out: Plasma concentration, Mean SC): 227 ng/mL
level at 0.5 h [3, 5]: 548 ng/mL
level at 1 h [3, 5]: 1400 ng/mL
level at 2 h [3, 5]: 1920 ng/mL
level at 4 h [3, 5]: 2350 ng/mL
level at 8 h [3, 5]: 845 ng/mL
level at 24 h ([3]; male, CD1, plasma, 10 mg/kg SC, 24.0 h, read-out: Plasma concentration, Mean SC): 243 ng/mL
AUC0-inf/AUC0-last ([3]; IV 2 mg kg-1): 101%
AUC0-inf/AUC0-last ([3]; SC 10 mg kg-1): 113%
Tlast ([3]; SC 10 mg kg-1): 24 h
bioavailability ([3]; plasma, subcutaneous, SC 10 mg kg-1 vs IV 2 mg kg-1): 36.3%
AUC(0-inf) ([3]; plasma, IV 2 mg kg-1): 11200 ng·h/mL
AUC(0-t) ([3]; plasma, IV 2 mg kg-1): 11000 ng·h/mL
C0 ([3]; plasma, IV 2 mg kg-1): 16300 ng/mL
clearance ([3]; plasma, IV 2 mg kg-1): 2.98 mL/min/kg
half-life ([3]; plasma, IV 2 mg kg-1): 2.29 h
MRT inf ([3]; plasma, IV 2 mg kg-1): 1.39 h
MRT last ([3]; plasma, IV 2 mg kg-1): 1.24 h
Vd ([3]; plasma, IV 2 mg kg-1, read-out: Vdss): 0.248 L/kg
AUC(0-inf) ([3]; plasma, SC 10 mg kg-1): 22600 ng·h/mL
AUC(0-t) ([3]; plasma, SC 10 mg kg-1): 20000 ng·h/mL
Cmax ([3]; plasma, SC 10 mg kg-1): 2350 ng/mL
Tmax ([3]; plasma, SC 10 mg kg-1): 4 h
half-life ([3]; plasma, SC 10 mg kg-1): 6.97 h
MRT inf ([3]; plasma, SC 10 mg kg-1): 11 h
MRT last ([3]; plasma, SC 10 mg kg-1): 7.99 h
